Data from publication PMC8563704, “Gain-of-Function Properties of a Dynamin 2 Mutant Implicated in Charcot-Marie-Tooth Disease” (Frontiers in Cellular Neuroscience, 2021).
Numbering of substitutions follows the chain as printed. Names may count otherwise.

B1: DNM2^ΔDEE-EGFP (enzyme, rat, UniProt P39052-1 1-870, looked up)
chain: MGNRGMEELIPLVNKLQDAFSSIGQSCHLDLPQIAVVGGQSAGKSSVLENFVGRDFLPRGSGIVTRRPLILQLIFSKTEYAEFLHCKSKKFTDFDEVRQEIEAETDRVTGTNKGISPVPINLRVYSPHVLNLTLIDLPGITKVPVGDQPPDIEYQIKDMILQFISRESSLILAVTPANMDLANSDALKLAKEVDPQGLRTIGVITKLDLMDEGTDARDVLENKLLPLRRGYIGVVNRSQKDIEGRKDIRAALAAERKFFLSHPAYRHMADRMGTPHLQKTLNQQLTNHIRESLPTLRSKLQSQLLSLEKEVEEYKNFRPDDPTRKTKALLQMVQQFGVDFEKRIEGSGDQVDTLELSGGARINRIFHERFPFELVKMEFDEKDLRREISYAIKNIHGVRTGLFTPDLAFEAIVKKQVVKLKEPCLKCVDLVIQELISTVRQCTSKLSSYPRLREETERIVTTYIREREGRTKDQILLLIDIEQSYINTNHEDFIGFANAQQRSTQLNKKRAIPNQGEILVIRRGWLTINNISLMKGGSKEYWFVLTAESLSWYKEKEKKYMLPLDNLKIRDVEKGFMSNKHVFAIFNTEQRNVYKDLRQIELACDSQEDVDSWKASFLRAGVYPEKDQAENEDGAQENTFSMDPQLERQVETIRNLVDSYVAIINKSIRDLMPKTIMHLMINNTKAFIHHELLAYLYSSADQSSLMEESAEQAQRRDDMLRMYHALKEALNIIGDISTSTVSTPVPPPVDDTWLQNTSSHSPTPQRRPVSSVHPPGRPPAVRGPTPGPPLIPMPVGATSSFSAPPIPSRPGPQNVFANNDPFSAPPQIPSRPARIPPGIPPGVPSRRAPAAPSRPTIIRPAEPSLLD
notes: dynamin 2, rat, isoform 1 (ba, IIBA), UniProtKB P39052-1, with the CMT-linked deletion of residues 555DEE557; Deletion introduced into the EGFP-tagged DNM2^WT template; also called EGFP-tagged DNM2^Δ ^DEE; source: expressed in U2OS cells (brightness analysis); NIH-3T3 cells (FLIM-FRET); not shown: EGFP, C-terminal, kept
B2: DNM2^WT-EGFP (enzyme, rat, UniProt P39052-1 1-870, looked up)
chain: MGNRGMEELIPLVNKLQDAFSSIGQSCHLDLPQIAVVGGQSAGKSSVLENFVGRDFLPRGSGIVTRRPLILQLIFSKTEYAEFLHCKSKKFTDFDEVRQEIEAETDRVTGTNKGISPVPINLRVYSPHVLNLTLIDLPGITKVPVGDQPPDIEYQIKDMILQFISRESSLILAVTPANMDLANSDALKLAKEVDPQGLRTIGVITKLDLMDEGTDARDVLENKLLPLRRGYIGVVNRSQKDIEGRKDIRAALAAERKFFLSHPAYRHMADRMGTPHLQKTLNQQLTNHIRESLPTLRSKLQSQLLSLEKEVEEYKNFRPDDPTRKTKALLQMVQQFGVDFEKRIEGSGDQVDTLELSGGARINRIFHERFPFELVKMEFDEKDLRREISYAIKNIHGVRTGLFTPDLAFEAIVKKQVVKLKEPCLKCVDLVIQELISTVRQCTSKLSSYPRLREETERIVTTYIREREGRTKDQILLLIDIEQSYINTNHEDFIGFANAQQRSTQLNKKRAIPNQGEILVIRRGWLTINNISLMKGGSKEYWFVLTAESLSWYKDEEEKEKKYMLPLDNLKIRDVEKGFMSNKHVFAIFNTEQRNVYKDLRQIELACDSQEDVDSWKASFLRAGVYPEKDQAENEDGAQENTFSMDPQLERQVETIRNLVDSYVAIINKSIRDLMPKTIMHLMINNTKAFIHHELLAYLYSSADQSSLMEESAEQAQRRDDMLRMYHALKEALNIIGDISTSTVSTPVPPPVDDTWLQNTSSHSPTPQRRPVSSVHPPGRPPAVRGPTPGPPLIPMPVGATSSFSAPPIPSRPGPQNVFANNDPFSAPPQIPSRPARIPPGIPPGVPSRRAPAAPSRPTIIRPAEPSLLD
notes: dynamin 2, rat, isoform 1 (ba, IIBA), UniProtKB P39052-1; The template cDNAs carried C-terminal His6 tags; also called EGFP-tagged DNM2^WT; source: expressed in U2OS cells (brightness analysis); NIH-3T3 cells (FLIM-FRET); not shown: EGFP, C-terminal, kept
B3: DNM2^A618T-EGFP (enzyme, rat, UniProt P39052-1 1-870, looked up)
chain: B2 chain with A618T
notes: dynamin 2, rat, isoform 1 (ba, IIBA), UniProtKB P39052-1, with the CNM-linked mutation A618T; The template cDNAs carried C-terminal His6 tags; also called EGFP-tagged DNM2^A618T; source: expressed in U2OS cells; not shown: EGFP, C-terminal, kept
B4: DNM2^K562E-EGFP (enzyme, rat, UniProt P39052-1 1-870, looked up)
chain: B2 chain with K562E
notes: dynamin 2, rat, isoform 1 (ba, IIBA), UniProtKB P39052-1, with the CMT-linked mutation K562E; The template cDNAs carried C-terminal His6 tags; also called EGFP-tagged DNM2^K562E; source: expressed in U2OS cells; not shown: EGFP, C-terminal, kept

Target: the molecule itself
Test: fluorescence fluctuation spectroscopy (brightness analysis); EGFP-tagged dynamins in the cytosol of living U2OS cells, as a function of concentration; two-photon excitation at 1,000 nm; brightness normalised to monomeric EGFP

| Protein | stoichiometry N |
| --- | --- |
| B1 | ~4 |
| B2 | ~4 |
| B3 | 20 to 24 |
| B4 | ~4 |
